{
  "source": "the supplement of paper PMC11316812",
  "key": {"[1]": {"tested_on": "hTERT-HMEC", "test": "percentage of EdU-negative (G0-arrested) nuclei per well, 72 h; higher = more G0 arrest", "details": "reference: sequence is the full UniProt precursor, the tested protein was the secreted form or ectodomain"}, "[2]": {"tested_on": "MCF7", "test": "percentage of EdU-negative (G0-arrested) nuclei per well, 72 h; higher = more G0 arrest", "details": "reference: sequence is the full UniProt precursor, the tested protein was the secreted form or ectodomain"}, "[3]": {"details": "protein concentration 0.0115 µM"}, "[4]": {"details": "protein concentration 0.0225 µM"}, "[5]": {"details": "protein concentration 0.0357143 µM"}, "[6]": {"details": "protein concentration 0.357143 µM"}, "[7]": {"details": "protein concentration 0.0308571 µM"}, "[8]": {"details": "protein concentration 0.308571 µM"}},
  "note": "± gives the standard deviation of the averaged measurements.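 Further: secreted proteins added to cultured cells, EdU pulse at the end, nuclei found by Hoechst imaging, EdU status from nuclear versus surrounding ring intensity ratio, PBS as neutral control.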",
  "data": [
    {"sequence": "MARFWVCVAGAGFFLAFLVLHSRFCGSPVLRNFTFAVSWRTEKILYRLDVGWPKHPEYFTGTTFCVAVDSLNGLVYIGQRGDNIPKILVFTEDGYFLRAWNYTVDTPHGIFAASTLYEQSVWITDVGSGFFGHTVKKYSSFGDLVQVLGTPGKKGTSLNPLQFDNPAELYVEDTGDIYIVDGDGGLNNRLIKLSQDFMILWLHGENGTGPAKFNIPHSVTLDSAGRVWVADRGNKRIQVFDKDTGEWLGAWNNCFTEEGPSSVRFTPDGKYLIVAQLNLSRLSVVAAPPVGSIGECSVISTIQLADQVLPHLLEVDRKTGAVYVAEIGAKQVQKYVPLNSYVPSFGS [Q5JS37]", "values": [
      {"measurement": "percentage of EdU-negative", "setting": "[1]; [3]", "value": "4.82 ± 0.15", "unit": "%"},
      {"measurement": "percentage of EdU-negative", "setting": "[1]; protein concentration 0.115 µM", "value": "16.1 ± 0.13", "unit": "%"},
      {"measurement": "percentage of EdU-negative", "setting": "[2]; [3]", "value": "26.8 ± 0.58", "unit": "%"},
      {"measurement": "percentage of EdU-negative", "setting": "[2]; protein concentration 0.115 µM", "value": "29.3 ± 1.4", "unit": "%"}
    ]},
    {"sequence": "MARGGRGRRLGLALGLLLALVLAPRVLRAKPTVRKERVVRPDSELGERPPEDNQSFQYDHEAFLGKEDSKTFDQLTPDESKERLGKIVDRIDNDGDGFVTTEELKTWIKRVQKRYIFDNVAKVWKDYDRDKDDKISWEEYKQATYGYYLGNPAEFHDSSDHHTFKKMLPRDERRFKAADLNGDLTATREEFTAFLHPEEFEHMKEIVVLETLEDIDKNGDGFVDQDEYIADMFSHEENGPEPDWVLSEREQFNEFRDLNKDGKLDKDEIRHWILPQDYDHAQAEARHLVYESDKNKDEKLTKEEILENWNMFVGSQATNYGEDLTKNHDEL", "values": [
      {"measurement": "percentage of EdU-negative", "setting": "[1]; [4]", "value": "4.56 ± 0.49", "unit": "%"},
      {"measurement": "percentage of EdU-negative", "setting": "[1]; protein concentration 0.225 µM", "value": "6.14 ± 0.11", "unit": "%"},
      {"measurement": "percentage of EdU-negative", "setting": "[2]; [4]", "value": "22.7 ± 0.8", "unit": "%"},
      {"measurement": "percentage of EdU-negative", "setting": "[2]; protein concentration 0.225 µM", "value": "25.5 ± 0.44", "unit": "%"}
    ]},
    {"sequence": "MARGSAVAWAALGPLLWGCALGLQGGMLYPQESPSRECKELDGLWSFRADFSDNRRRGFEEQWYRRPLWESGPTVDMPVPSSFNDISQDWRLRHFVGWVWYEREVILPERWTQDLRTRVVLRIGSAHSYAIVWVNGVDTLEHEGGYLPFEADISNLVQVGPLPSRLRITIAINNTLTPTTLPPGTIQYLTDTSKYPKGYFVQNTYFDFFNYAGLQRSVLLYTTPTTYIDDITVTTSVEQDSGLVNYQISVKGSNLFKLEVRLLDAENKVVANGTGTQGQLKVPGVSLWWPYLMHERPAYLYSLEVQLTAQTSLGPVSDFYTLPVGIRTVAVTKSQFLINGKPFYFHGVNKHEDADIRGKGFDWPLLVKDFNLLRWLGANAFRTSHYPYAEEVMQMCDRYGIVVIDECPGVGLALPQFFNNVSLHHHMQVMEEVVRRDKNHPAVVMWSVANEPASHLESAGYYLKMVIAHTKSLDPSRPVTFVSNSNYAADKGAPYVDVICLNSYYSWYHDYGHLELIQLQLATQFENWYKKYQKPIIQSEYGAETIAGFHQDPPLMFTEEYQKSLLEQYHLGLDQKRRKYVVGELIWNFADFMTEQSPTRVLGNKKGIFTRQRQPKSAAFLLRERYWKIANETRYPHSVAKSQCLENSLFT", "values": [
      {"measurement": "percentage of EdU-negative", "setting": "[1]; [4]", "value": "5.26 ± 0.26", "unit": "%"},
      {"measurement": "percentage of EdU-negative", "setting": "[1]; protein concentration 0.225 µM", "value": "5.74 ± 0.95", "unit": "%"},
      {"measurement": "percentage of EdU-negative", "setting": "[2]; [4]", "value": "24.2 ± 0.95", "unit": "%"},
      {"measurement": "percentage of EdU-negative", "setting": "[2]; protein concentration 0.225 µM", "value": "23.4 ± 1.8", "unit": "%"}
    ]},
    {"sequence": "MARILLLFLPGLVAVCAVHGIFMDRLASKKLCADDECVYTISLASAQEDYNAPDCRFINVKKGQQIYVYSKLVKENGAGEFWAGSVYGDGQDEMGVVGYFPRNLVKEQRVYQEATKEVPTTDIDFFCE [Q9NRC9]", "values": [
      {"measurement": "percentage of EdU-negative", "setting": "[1]; [5]", "value": "5.05 ± 0.39", "unit": "%"},
      {"measurement": "percentage of EdU-negative", "setting": "[1]; [6]", "value": "5.74 ± 0.68", "unit": "%"},
      {"measurement": "percentage of EdU-negative", "setting": "[2]; [5]", "value": "24.18 ± 0.24", "unit": "%"},
      {"measurement": "percentage of EdU-negative", "setting": "[2]; [6]", "value": "27 ± 3.7", "unit": "%"}
    ]},
    {"sequence": "MARLALSPVPSHWMVALLLLLSAEPVPAARSEDRYRNPKGSACSRIWQSPRFIARKRGFTVKMHCYMNSASGNVSWLWKQEMDENPQQLKLEKGRMEESQNESLATLTIQGIRFEDNGIYFCQQKCNNTSEVYQGCGTELRVMGFSTLAQLKQRNTLKDGIIMIQTLLIILFIIVPIFLLLDKDDSKAGMEEDHTYEGLDIDQTATYEDIVTLRTGEVKWSVGEHPGQE", "values": [
      {"measurement": "percentage of EdU-negative", "setting": "[1]; [4]", "value": "5.71 ± 0.54", "unit": "%"},
      {"measurement": "percentage of EdU-negative", "setting": "[1]; protein concentration 0.225 µM", "value": "8.95 ± 0.22", "unit": "%"},
      {"measurement": "percentage of EdU-negative", "setting": "[2]; [4]", "value": "25.5 ± 0.14", "unit": "%"},
      {"measurement": "percentage of EdU-negative", "setting": "[2]; protein concentration 0.225 µM", "value": "26.8 ± 0.87", "unit": "%"}
    ]},
    {"sequence": "MARLGNCSLTWAALIILLLPGSLEECGHISVSAPIVHLGDPITASCIIKQNCSHLDPEPQILWRLGAELQPGGRQQRLSDGTQESIITLPHLNHTQAFLSCCLNWGNSLQILDQVELRAGYPPAIPHNLSCLMNLTTSSLICQWEPGPETHLPTSFTLKSFKSRGNCQTQGDSILDCVPKDGQSHCCIPRKHLLLYQNMGIWVQAENALGTSMSPQLCLDPMDVVKLEPPMLRTMDPSPEAAPPQAGCLQLCWEPWQPGLHINQKCELRHKPQRGEASWALVGPLPLEALQYELCGLLPATAYTLQIRCIRWPLPGHWSDWSPSLELRTTERAPTVRLDTWWRQRQLDPRTVQLFWKPVPLEEDSGRIQGYVVSWRPSGQAGAILPLCNTTELSCTFHLPSEAQEVALVAYNSAGTSRPTPVVFSESRGPALTRLHAMARDPHSLWVGWEPPNPWPQGYVIEWGLGPPSASNSNKTWRMEQNGRATGFLLKENIRPFQLYEIIVTPLYQDTMGPSQHVYAYSQEMAPSHAPELHLKHIGKTWAQLEWVPEPPELGKSPLTHYTIFWTNAQNQSFSAILNASSRGFVLHGLEPASLYHIHLMAASQAGATNSTVLTLMTLTPEGSELHIILGLFGLLLLLTCLCGTAWLCCSPNRKNPLWPSVPDPAHSSLGSWVPTIMEEDAFQLPGLGTPPITKLTVLEEDEKKPVPWESHNSSETCGLPTLVQTYVLQGDPRAVSTQPQSQSGTSDQVLYGQLLGSPTSPGPGHYLRCDSTQPLLAGLTPSPKSYENLWFQASPLGTLVTPAPSQEDDCVFGPLLNFPLLQGIRVHGMEALGSF", "values": [
      {"measurement": "percentage of EdU-negative", "setting": "[1]; [7]", "value": "5.21 ± 0.22", "unit": "%"},
      {"measurement": "percentage of EdU-negative", "setting": "[1]; [8]", "value": "10.7 ± 1.1", "unit": "%"},
      {"measurement": "percentage of EdU-negative", "setting": "[2]; [7]", "value": "27.8 ± 0.38", "unit": "%"},
      {"measurement": "percentage of EdU-negative", "setting": "[2]; [8]", "value": "29.5 ± 3", "unit": "%"}
    ]}
  ]
}
